We go through 1 substance from paper PMC4158924.

This assay deals with K12-acetylated histone H4 tail peptide (residues 1–20), biotinylated at the C-terminus (UniProt P62805). Put plainly: SPR.

The term Kd denotes the equilibrium constant for the complex coming apart. High values mean a looser complex, low ones a tighter complex. “second bromodomain of human BRD2 (BRD2-BD2: residues 348–455) (from UniProt P25440 348-455) (domain or fragment)” gave a Kd of 300 µM.
